The chains are these.
B1: H183/L072 VL F96E (antibody, name in Kabat numbering, V domains shown)
VH: QVQLVESGGGLVQPGRSLRLSCAASGFTFSNAWMHWVRQAPGKGLEWVAQIKDKGNAYAAYYAPSVKGRFTISRDDSKNSIYLQMNSLKTEDTAVYYCHYVHYASASTVLPAFGVDAWGQGTTVTVSS
VL: DIVMTQSPLSLPVTPGEPASISCQASQELVHMNRNTYLHWYQQKPGQAPRLLIYKVSNRFPGVPDRFSGSGSGTDFTLKISRVEAEDVGVYYCAQGTSVPETFGQGTKLEIK
notes: Dual-Ig
B2: H183/L072 VL F96G (antibody, name in Kabat numbering, V domains shown)
VH: QVQLVESGGGLVQPGRSLRLSCAASGFTFSNAWMHWVRQAPGKGLEWVAQIKDKGNAYAAYYAPSVKGRFTISRDDSKNSIYLQMNSLKTEDTAVYYCHYVHYASASTVLPAFGVDAWGQGTTVTVSS
VL: DIVMTQSPLSLPVTPGEPASISCQASQELVHMNRNTYLHWYQQKPGQAPRLLIYKVSNRFPGVPDRFSGSGSGTDFTLKISRVEAEDVGVYYCAQGTSVPGTFGQGTKLEIK
notes: Dual-Ig
B3: H183/L072 VL F96M (antibody, name in Kabat numbering, V domains shown)
VH: QVQLVESGGGLVQPGRSLRLSCAASGFTFSNAWMHWVRQAPGKGLEWVAQIKDKGNAYAAYYAPSVKGRFTISRDDSKNSIYLQMNSLKTEDTAVYYCHYVHYASASTVLPAFGVDAWGQGTTVTVSS
VL: DIVMTQSPLSLPVTPGEPASISCQASQELVHMNRNTYLHWYQQKPGQAPRLLIYKVSNRFPGVPDRFSGSGSGTDFTLKISRVEAEDVGVYYCAQGTSVPMTFGQGTKLEIK
notes: Dual-Ig
B4: H183/L072 VL F96L (antibody, name in Kabat numbering, V domains shown)
VH: QVQLVESGGGLVQPGRSLRLSCAASGFTFSNAWMHWVRQAPGKGLEWVAQIKDKGNAYAAYYAPSVKGRFTISRDDSKNSIYLQMNSLKTEDTAVYYCHYVHYASASTVLPAFGVDAWGQGTTVTVSS
VL: DIVMTQSPLSLPVTPGEPASISCQASQELVHMNRNTYLHWYQQKPGQAPRLLIYKVSNRFPGVPDRFSGSGSGTDFTLKISRVEAEDVGVYYCAQGTSVPLTFGQGTKLEIK
notes: Dual-Ig
B5: H183/L072 VL F96K (antibody, name in Kabat numbering, V domains shown)
VH: QVQLVESGGGLVQPGRSLRLSCAASGFTFSNAWMHWVRQAPGKGLEWVAQIKDKGNAYAAYYAPSVKGRFTISRDDSKNSIYLQMNSLKTEDTAVYYCHYVHYASASTVLPAFGVDAWGQGTTVTVSS
VL: DIVMTQSPLSLPVTPGEPASISCQASQELVHMNRNTYLHWYQQKPGQAPRLLIYKVSNRFPGVPDRFSGSGSGTDFTLKISRVEAEDVGVYYCAQGTSVPKTFGQGTKLEIK
notes: Dual-Ig
B6: H183/L072 VL F96H (antibody, name in Kabat numbering, V domains shown)
VH: QVQLVESGGGLVQPGRSLRLSCAASGFTFSNAWMHWVRQAPGKGLEWVAQIKDKGNAYAAYYAPSVKGRFTISRDDSKNSIYLQMNSLKTEDTAVYYCHYVHYASASTVLPAFGVDAWGQGTTVTVSS
VL: DIVMTQSPLSLPVTPGEPASISCQASQELVHMNRNTYLHWYQQKPGQAPRLLIYKVSNRFPGVPDRFSGSGSGTDFTLKISRVEAEDVGVYYCAQGTSVPHTFGQGTKLEIK
notes: Dual-Ig
B7: H183/L072 VL F96N (antibody, name in Kabat numbering, V domains shown)
VH: QVQLVESGGGLVQPGRSLRLSCAASGFTFSNAWMHWVRQAPGKGLEWVAQIKDKGNAYAAYYAPSVKGRFTISRDDSKNSIYLQMNSLKTEDTAVYYCHYVHYASASTVLPAFGVDAWGQGTTVTVSS
VL: DIVMTQSPLSLPVTPGEPASISCQASQELVHMNRNTYLHWYQQKPGQAPRLLIYKVSNRFPGVPDRFSGSGSGTDFTLKISRVEAEDVGVYYCAQGTSVPNTFGQGTKLEIK
notes: Dual-Ig
B8: H183/L072 VL F96I (antibody, name in Kabat numbering, V domains shown)
VH: QVQLVESGGGLVQPGRSLRLSCAASGFTFSNAWMHWVRQAPGKGLEWVAQIKDKGNAYAAYYAPSVKGRFTISRDDSKNSIYLQMNSLKTEDTAVYYCHYVHYASASTVLPAFGVDAWGQGTTVTVSS
VL: DIVMTQSPLSLPVTPGEPASISCQASQELVHMNRNTYLHWYQQKPGQAPRLLIYKVSNRFPGVPDRFSGSGSGTDFTLKISRVEAEDVGVYYCAQGTSVPITFGQGTKLEIK
notes: Dual-Ig

Consider eight molecules from patent US20210388087A1 (Chugai, published 2021).

This experiment deals with T1, Human CD137 ECD (human).
T1 construct: entry includes C-terminal His-tag and biotin acceptor peptide; also called human CD137 extracellular domain; 4-1BB
T1 sequence (chain, as listed by the source limits assumed): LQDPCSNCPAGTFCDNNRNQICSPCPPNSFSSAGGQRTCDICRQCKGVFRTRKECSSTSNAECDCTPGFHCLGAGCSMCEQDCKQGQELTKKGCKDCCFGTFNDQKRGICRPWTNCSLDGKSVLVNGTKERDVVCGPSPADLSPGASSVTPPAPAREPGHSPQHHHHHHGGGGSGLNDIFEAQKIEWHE
As to the kind of experiment: Biacore SPR, vs parent H183/L072.
Regarding B1, the “fold change of affinity” value is 0 fold.
With B2 the figure was 0 fold; with B3, 0 fold.
Regarding B4, the “fold change of affinity” value worked out at 0 fold.
For B5, the “fold change of affinity” value amounted to 0 fold.
With B6, the “fold change of affinity” value came out at 0 fold.
The result for B7 reads 0 fold; that for B8, 0 fold.
